From patent EP2468863A1 come the findings set out here.

The target in the test is CEACAM1 expressed on transfected cells (CHO-CEACAM1, HeLa CC1, HeLa-CC1H) (human) (UniProt P13688). Kind of test: cell-based or functional assay.
Sequence of UniProt P13688 (P13688 35-526): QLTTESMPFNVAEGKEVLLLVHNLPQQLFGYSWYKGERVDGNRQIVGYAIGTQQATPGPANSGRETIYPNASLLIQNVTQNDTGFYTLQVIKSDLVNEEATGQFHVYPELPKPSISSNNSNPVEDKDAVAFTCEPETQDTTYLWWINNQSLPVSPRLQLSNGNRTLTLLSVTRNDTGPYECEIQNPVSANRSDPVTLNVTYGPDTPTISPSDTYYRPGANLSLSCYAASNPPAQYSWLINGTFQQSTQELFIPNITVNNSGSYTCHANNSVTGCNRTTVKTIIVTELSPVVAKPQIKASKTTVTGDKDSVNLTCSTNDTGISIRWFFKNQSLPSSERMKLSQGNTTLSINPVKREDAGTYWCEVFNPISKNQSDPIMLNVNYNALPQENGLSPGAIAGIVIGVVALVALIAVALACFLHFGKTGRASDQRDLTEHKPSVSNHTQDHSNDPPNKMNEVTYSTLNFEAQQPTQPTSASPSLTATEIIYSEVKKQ

The substance “recombinant UspA1 fragment 4-7 (peptide)” returned an inhibition of binding of H. influenzae to CHO-CEACAM1 transfectants of 10 µg per ml and an inhibition of binding of M. catarrhalis strain MX1 to CHO-CEACAM1 transfectants of 1 µg/mL.
